“Also recorded” adds a separate entry of the source. Marks after values point to notes of the source that are not given here. Blank lines part the entries; values can stand above or below the molecule they belong to.
Experiments:
CXCR4 = CXCR4 (Homo sapiens, UniProt P61073); test: CRE/β-galactosidase reporter gene assay in HEK293T cells expressing CXCR4; type: cell-based; conditions: for Schild slope: log(CR-1) vs -log[Nanobody]
Experimental: HEK293T cells were maintained at 37° C. in a humidified 5% CO2, 95% air atmosphere in Dulbecco's modified Eagle's medium (DMEM) containing 2 mM L-glutamine, 50 IU/ml penicillin, 50 μg/ml streptomycin, and 10% (v/v) fetal calf serum. Jurkat cells were cultured in a humidified 5% CO2, 95% air atmosphere in a 1:1 mixture of Dulbecco's modified Eagle's medium (DMEM) and Ham's F12 medium containing 2 mM L-glutamine, 50 IU/ml penicillin, 50 μg/ml streptomycin, and 10% (v/v) fetal calf serum. […] [^125 I]-Labelling— Radiolabeling of Nanobodies with ^125I was performed using the Iodo-gen method (Pierce, Rockford, Ill.) according to the manufacturer's protocol. ^125I-labeled Nanobodies was separated from free iodine (>99%) using a Sephadex G-25 gel filtration column (Amersham Biosciences, Piscataway, N.J.). […] Competition Binding Assays— Membranes from HEK293T cells transiently expressing CXCR3 or CXCR4 were prepared 48 h after transfection as follows. Cells were washed and scraped from the cell culture dishes with ice-cold PBS containing 1 mm EDTA. The scraped cells were pelleted at 1500×g for 10 min at 4° C. The pellet was washed and then resuspended in ice-cold membrane buffer (15 mM Tris, pH 7.5, 1 mM EGTA, 0.3 mM EDTA, and 2 mM MgCl2). The cell suspension was homogenized by 10 strokes at 1200 rpm using a Teflon-glass homogenizer and rotor and further subjected to three freeze-thaw cycles using liquid nitrogen. Membranes were separated by centrifugation at 40,000 g for 25 min at 4° C. The membrane pellet was washed and resuspended in ice-cold Tris-sucrose buffer (20 mM Tris, pH 7.4, and 250 mM sucrose) and frozen in liquid nitrogen. The total protein was determined using a Bradford assay (Bio-Rad). Periplasmas (1:10) or ligands were pre-incubated with membranes in binding buffer (50 mM HEPES (pH 7.4), 1 mM CaCl2, 5 mM MgCl2, 100 mM NaCl, 0.5% bovine serum albumin) supplemented with 0.5% BSA for 1 h at 22° C. before the addition of [^125I]-CXCL12 (40 pM) or [^125I]-238D2 (3 nM) or [^125I]-238D4 (3 nM) for additional 2 h at 22° C. […] Membranes were then harvested over polyethylenimine (0.5%)-treated Whatman GF/C filter plates and washed three times with ice cold binding buffer containing 500 mM NaCl. Plates were counted by liquid scintillation. Inositol Phosphate Accumulation Assay— 24 hours post transfection with pcDNA3.1-CXCR4 and pcDNA1-HA-mG {alpha} qi5 (see Verzijl et al, 2008 supra), 250.000 cells were seeded into 24-wells plates and labelled overnight using inositol-free minimal essential medium supplemented with 1 μCi myo-[2-^3H]-inositol. The next day, the cells were washed once to remove not incorporated myo-[2-^3H]-inositol. […] In agonist experiments, the cells were directly stimulated with test compounds and LiCl (10 mM) in assay buffer for 2 h at 37° C. The stimulation was stopped by aspirating the stimulation medium and adding ice-cold 10 mM formic acid. The accumulated inositol phosphates were isolated by anion exchange chromatography and counted by liquid scintillation. CRE Reporter Gene Assay— HEK239T cells were transfected with pCRE/β-galactosidase (Chen W, Shields T S, Stork P J S, Cone R D (1995) Anal Biochem 226:349-354) and plasmids (pcDEF3 or pcDNA3.1) encoding the indicated receptors. 40,000 transfected cells per well were seeded into 96 well plates and grown in DMEM supplemented with 10% fetal calf serum. The medium was replaced 32 h after transfection by serum-free DMEM supplemented with 0.5% bovine serum albumin and ligands as indicated. Following 16 h of ligand incubation, the medium was removed, the cells were lysed in 100 μl of assay buffer (100 mM sodium phosphate buffer at pH 8.0, 4 mM 2-nitrophenol-β-D-pyranoside, 0.5% Triton X-100, 2 mM MgSO4, 0.1 mM MnCl2, and 40 mM β-mercaptoethanol) and incubated at room temperature. […]

CCR7 = target: T1, CCR7 (Homo sapiens, UniProt P32248); test: CRE/β-galactosidase reporter gene selectivity screen, CCR7; type: cell-based; conditions: up to 2.5, forskolin 3 μM, agonist at 50-80% Emax
T1 sequence (P32248 25-378): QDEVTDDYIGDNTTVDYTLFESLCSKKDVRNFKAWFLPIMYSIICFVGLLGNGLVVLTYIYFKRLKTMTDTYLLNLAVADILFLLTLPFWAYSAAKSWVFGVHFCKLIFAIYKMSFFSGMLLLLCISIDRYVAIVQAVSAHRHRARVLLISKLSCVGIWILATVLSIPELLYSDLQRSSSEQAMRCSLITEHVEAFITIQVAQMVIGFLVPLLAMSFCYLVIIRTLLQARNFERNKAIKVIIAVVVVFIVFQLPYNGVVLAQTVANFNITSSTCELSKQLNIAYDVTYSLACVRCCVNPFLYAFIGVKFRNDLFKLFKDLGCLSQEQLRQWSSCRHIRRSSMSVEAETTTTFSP

[1] = HEK293T-CXCR4-CREbgal/0.01-100 nM CXCL12, mean ± S.E.M.

Sequence of CXCR4 (P61073 whole entry): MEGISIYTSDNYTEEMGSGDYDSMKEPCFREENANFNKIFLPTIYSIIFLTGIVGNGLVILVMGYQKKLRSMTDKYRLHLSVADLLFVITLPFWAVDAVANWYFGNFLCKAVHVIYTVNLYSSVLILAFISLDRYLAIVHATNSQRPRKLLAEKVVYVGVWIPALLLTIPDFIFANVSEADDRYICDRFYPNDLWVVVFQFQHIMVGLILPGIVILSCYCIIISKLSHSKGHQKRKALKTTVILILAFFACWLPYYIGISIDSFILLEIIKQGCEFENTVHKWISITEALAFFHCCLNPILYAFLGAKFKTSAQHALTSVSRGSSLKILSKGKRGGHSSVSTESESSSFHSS

mode of antagonism of the CXCL12-induced activation of signal transduction (CXCR4): competitive antagonism | Imax (%), CRE activation (CXCR4; [1]): 104 ± 5^a % | pKi or pIC50, CRE activation (CXCR4; [1]): 7.64 ± 0.16^b | pKB (CXCR4; from Schild plot data, CXCL12-induced reporter gene response): 7.64±0.16 | Schild slope (CXCR4): 0.91±0.20
B1: 238D2: Nanobody (VHH) raised against human CXCR4, SEQ ID NO: 238 (protein)
VHH: EVQLVESGGGLVQTGGSLRLSCAASGFTFSSYAMSWVRQAPGKGLEWVSGIKSSGDSTRYAGSVKGRFTISRDNAKNMLYLQMYSLKPEDTAVYYCAKSRVSRTGLYTYDNRGQGTQVTVSS
modifications: Nanobody, Nanobody constructs or fragments thereof
agonist activity in the absence of CXCL12, CRE reporter (CXCR4): No agonist activity; also recorded: did not show any agonist activity | effect on agonist-induced response at CCR7 (CCR7): do not act as agonists or antagonists; also recorded: do not alter

mode of antagonism of the CXCL12-induced activation of signal transduction (CXCR4): competitive antagonism | Imax (%), CRE activation (CXCR4; [1]): 90 ± 15^a % | Schild slope (CXCR4): 0.71±0.17
B2: 238D4: Nanobody (VHH) raised against human CXCR4, SEQ ID NO: 239 (protein)
VHH: EVQLMESGGGLVQAGGSLRLSCAASGRTFNNYAMGWFRRAPGKEREFVAAITRSGVRSGVSAIYGDSVKDRFTISRDNAKNTLYLQMNSLKPEDTAVYTCAASAIGSGALRRFEYDYSGQGTQVTVSS
modifications: Nanobody, Nanobody constructs or fragments thereof
agonist activity in the absence of CXCL12, CRE reporter (CXCR4): No agonist activity; also recorded: did not show any agonist activity | effect on agonist-induced response at CCR7 (CCR7): do not act as agonists or antagonists; also recorded: do not alter
